Laboratory results: patent US10487337B2, “Methods for monocot plant improvement” (Agresearch Limited, priority 2014, dated 2019)

Molecular target: T1, NINJA (Arabidopsis thaliana, UniProt Q9SV55)
T1 construct: expressed in transfected cells; host or cells: yeast strain MaV203
T1 sequence (Q9SV55 with tags, fused parts or gaps): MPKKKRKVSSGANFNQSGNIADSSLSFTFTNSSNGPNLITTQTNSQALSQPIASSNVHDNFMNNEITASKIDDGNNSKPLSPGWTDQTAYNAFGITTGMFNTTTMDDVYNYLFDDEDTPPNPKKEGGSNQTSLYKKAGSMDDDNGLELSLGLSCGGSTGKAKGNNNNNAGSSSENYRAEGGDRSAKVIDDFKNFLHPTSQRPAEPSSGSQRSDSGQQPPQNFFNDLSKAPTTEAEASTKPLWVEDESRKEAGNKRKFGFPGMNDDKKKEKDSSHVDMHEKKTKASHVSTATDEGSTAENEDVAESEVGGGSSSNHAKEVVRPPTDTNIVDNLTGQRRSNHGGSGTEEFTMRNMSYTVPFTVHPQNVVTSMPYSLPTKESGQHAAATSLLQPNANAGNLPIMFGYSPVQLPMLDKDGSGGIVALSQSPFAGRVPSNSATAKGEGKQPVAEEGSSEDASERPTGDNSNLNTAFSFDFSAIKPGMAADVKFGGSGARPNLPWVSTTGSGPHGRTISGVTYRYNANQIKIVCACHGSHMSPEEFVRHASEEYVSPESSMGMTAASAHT
Assay: Yeast two hybrid (Y2H) interaction with NINJA
Assay type: binding
Conditions: Y2H screening, PPD1 as bait
Text: The constructs for Y2H and BiFC assays were generated as follows. Arabidopsis DNA sequences encoding the open reading frames for; At4g14713 (PPD1) and truncation and deletion derivatives of PPD1: PPD1; PPD1Δppd (N-terminal truncation of sequences encoding aa 1-61), PPD1Δtify, (internal deletion of sequences encoding aa 154-186), PPD1Δjas*(C-terminal truncation of sequences encoding aa 229-313) (FIG. 5), At4g28910 (NINJA), At1g15750 (TPL), At1g75080 (BZR1), a synthetic PUAS-35S promoter, and sequences encoding GAL4DBD and c-myc fusion proteins were synthesised and sequence verified by GeneArt. Most sequences were supplied as clones in pENTR221 ready for Gateway cloning into yeast and plant expression vectors. The exception, a promoter sequence for in planta transcription activation assays, incorporating 5′ Xho1 and 3′ Nco1 restriction enzyme sites, was supplied cloned in pMA-RQ. Plasmids for the transient LUC reporter assay: A synthetic promoter with 5×UAS GAL4 DNA binding sites upstream of a −105 bp CaMV35S promoter was cloned into the XhoI-NcoI sites within a dual luciferase construct pNWA62, which contains an intron-containing Firefly Luciferase gene (LUC) and 35Spro::Renilla Luciferase (REN) as an internal standard, to construct pAML7. […]

B1: PPD1: PEAPOD 1 protein of Arabidopsis thaliana, SEQ ID NO: 1 (protein, listed as Arabidopsis thaliana)
chain: MDVGVSPAKSILAKPLKLLTEEDISQLTREDCRKFLKDKGMRRPSWNKSQAIQQVLSLKALYEPGDDSGAGIFRKILVSQPVNPPRVTTTLIEPSNELEACGRVSYPEDNGACHRMDSPRSAEFSGGSGHFVSEKDGHKTTISPRSPAETSELVGQMTIFYSGKVNVYDGIPPEKARSIMHFAANPIDLPENGIFASSRMISKLISKEKMMELPQKGLEKANSSRDSGMEGQANRKVSLQRYREKRKDRKFSKAKKCPGVASSSLEMFLNCQPRMKAAYSQNLGCTGSPLHSQSPESQTKSPNLSVDLNSEGI
  interaction with NINJA: direct interactor
